In publication PMC11211486, “Structural basis for recruitment of peptidoglycan endopeptidase MepS by lipoprotein NlpI” (Nature Communications, 2024):
Where “and” joins values, the source holds several entries; their conditions need not be identical. Identical values can stand only once. Where no end group is shown, it is not given here.

T1: mMepS-Q28A (E. coli, UniProt P0AFV4 27-188, C1 replaced with a Met residue | Q28A)
T1 construct: Site-directed mutant of mMepS; source: E. coli BL21 (DE3), purified (Ni-NTA, SEC)
T1 sequence (looked up): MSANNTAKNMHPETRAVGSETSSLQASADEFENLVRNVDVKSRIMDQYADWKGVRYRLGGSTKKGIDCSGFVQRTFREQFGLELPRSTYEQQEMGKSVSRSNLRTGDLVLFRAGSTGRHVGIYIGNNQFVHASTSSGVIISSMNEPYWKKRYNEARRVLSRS

T2: mMepS-L24R (E. coli, UniProt P0AFV4 27-188, C1 replaced with a Met residue | L24R)
T2 construct: Site-directed mutant of mMepS; also called L24R variant; source: E. coli BL21 (DE3), purified (Ni-NTA, SEC)
T2 sequence (looked up): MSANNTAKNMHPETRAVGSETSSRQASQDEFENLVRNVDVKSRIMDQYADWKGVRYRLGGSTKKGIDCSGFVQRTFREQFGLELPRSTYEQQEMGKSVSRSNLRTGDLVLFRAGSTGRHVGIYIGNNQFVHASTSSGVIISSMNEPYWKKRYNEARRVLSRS

B1: NlpI (residues 20-294), soluble mature lipoprotein NlpI without the lipoprotein signal peptide (natural protein, E. coli, UniProt P0AFB1 20-294, looked up)
chain: SNTSWRKSEVLAVPLQPTLQQEVILARMEQILASRALTDDERAQLLYERGVLYDSLGLRALARNDFSQALAIRPDMPEVFNYLGIYLTQAGNFDAAYEAFDSVLELDPTYNYAHLNRGIALYYGGRDKLAQDDLLAFYQDDPNDPFRSLWLYLAEQKLDEKQAKEVLKQHFEKSDKEQWGWNIVEFYLGNISEQTLMERLKADATDNTSLAEHLSETNFYLGKYYLSLGDLDSATALFKLAVANNVHNFVEHRYALLELSLLGQDQDDLAESDQQ
notes: the lipidation residue C19 is not in the construct; pET28a, N-terminal His-tag followed by a TEV site; also called NlpI dimer; adaptor NlpI; source: E. coli BL21 (DE3), purified (Ni-NTA, SEC, MonoQ)
B2: soluble mature form of MepS (mMepS, residues 1-162) (enzyme, E. coli, UniProt P0AFV4 27-188, looked up)
chain: MSANNTAKNMHPETRAVGSETSSLQASQDEFENLVRNVDVKSRIMDQYADWKGVRYRLGGSTKKGIDCSGFVQRTFREQFGLELPRSTYEQQEMGKSVSRSNLRTGDLVLFRAGSTGRHVGIYIGNNQFVHASTSSGVIISSMNEPYWKKRYNEARRVLSRS
modifications: 15N-labelled in the NMR titrations
notes: Cloned into either pET21a (C-terminal His-tag) or pET28a (N-terminal His-tag and TEV site); also called wild-type mMepS; mature full-length MepS; source: E. coli BL21 (DE3), purified (Ni-NTA, SEC)

Tests used:
mMepS-Q28A = target: T1, mMepS-Q28A; assay: ITC; NlpI (300 or 600 µM) injected into 30 µM MepS protein in the cell; 20 °C; 20 mM HEPES pH 7.5, 300 mM NaCl, 2 mM β-mercaptoethanol; one set of sites model; settings: both partners purified
[1] = target: B2; assay: as above; settings: both partners purified
mMepS-L24R = target: T2, mMepS-L24R; assay: as above; settings: both partners purified
[2] = target: the molecule itself; assay: crystal structure; NlpI-mMepS complex, 2.8 Å, space group C2, PDB 8XUP
[3] = target: B2; assay: NMR titration; 1H-15N TROSY-HSQC of 15N-labelled MepS protein (50 µM in Fig. 1) with unlabelled NlpI dimer (25 µM), NlpI-ΔN or Prc^SK added; 298 K; intensity ratios I/I0; settings: both partners purified
[4] = target: T3, NlpI (residues 20-294, without the lipoprotein signal peptide) (E. coli, UniProt P0AFB1 20-294); assay: ITC; NlpI (or NlpI-ΔN) in the syringe, 300 or 600 µM, injected into 30 µM MepS protein in the cell; 20 °C; 20 mM HEPES pH 7.5, 300 mM NaCl, 2 mM β-mercaptoethanol; one set of sites model; three experiments and their average; settings: both partners purified
T3 construct: the lipidation site C19 is not in the construct; pET28a with an N-terminal His-tag and a TEV cleavage site; also called NlpI-WT; NlpI dimer; source: E. coli BL21 (DE3), purified (Ni-NTA, SEC, MonoQ)

[5] = target: B1; assay: ITC; NlpI (300 or 600 µM) injected into 30 µM MepS protein in the cell; 20 °C; 20 mM HEPES pH 7.5, 300 mM NaCl, 2 mM β-mercaptoethanol; one set of sites model; settings: both partners purified

Binder | Kd [4] | Kd [5] | other results
B1 |  |  | fold decrease in binding affinity against mMepS (mMepS-Q28A): 7.7 fold; stoichiometry N [1]: 1; fold increase in KD against mMepS (mMepS-L24R): ~28 fold; stoichiometry N [2]: 2; NMR signal intensity ratio with NlpI [3]: < 10%
soluble mature form of MepS (mMepS, residues 1-162) (enzyme, E. coli, UniProt P0AFV4 27-188, looked up, numbers count on: the mature protein; Cloned into either pET21a (C-terminal His-tag) or pET28a (N-terminal His-tag and TEV site); also called mMepS-1; mMepS-2; source: E. coli BL21 (DE3), purified (Ni-NTA, SEC)) MSANNTAKNMHPETRAVGSETSSLQASQDEFENLVRNVDVKSRIMDQYADWKGVRYRLGGSTKKGIDCSGFVQRTFREQFGLELPRSTYEQQEMGKSVSRSNLRTGDLVLFRAGSTGRHVGIYIGNNQFVHASTSSGVIISSMNEPYWKKRYNEARRVLSRS | 250 nM and 220 nM |  | 
B2 |  | 240 nM | 
mMepS-D39A (enzyme, E. coli, UniProt P0AFV4 27-188, looked up, Site-directed mutant of mMepS; source: E. coli BL21 (DE3), purified (Ni-NTA, SEC)) MSANNTAKNMHPETRAVGSETSSLQASQDEFENLVRNVAVKSRIMDQYADWKGVRYRLGGSTKKGIDCSGFVQRTFREQFGLELPRSTYEQQEMGKSVSRSNLRTGDLVLFRAGSTGRHVGIYIGNNQFVHASTSSGVIISSMNEPYWKKRYNEARRVLSRS |  | 390 nM | 
mMepS-D39A (enzyme, E. coli, UniProt P0AFV4 27-188, looked up, numbers count on: the mature protein; Site-directed mutant of mMepS; source: E. coli BL21 (DE3), purified (Ni-NTA, SEC)) MSANNTAKNMHPETRAVGSETSSLQASQDEFENLVRNVAVKSRIMDQYADWKGVRYRLGGSTKKGIDCSGFVQRTFREQFGLELPRSTYEQQEMGKSVSRSNLRTGDLVLFRAGSTGRHVGIYIGNNQFVHASTSSGVIISSMNEPYWKKRYNEARRVLSRS | 280 nM and 390 nM and 500 nM |  | 
mMepS-L24R (enzyme, E. coli, UniProt P0AFV4 27-188, looked up, numbers count on: the mature protein; Site-directed mutant of mMepS; source: E. coli BL21 (DE3), purified (Ni-NTA, SEC)) MSANNTAKNMHPETRAVGSETSSRQASQDEFENLVRNVDVKSRIMDQYADWKGVRYRLGGSTKKGIDCSGFVQRTFREQFGLELPRSTYEQQEMGKSVSRSNLRTGDLVLFRAGSTGRHVGIYIGNNQFVHASTSSGVIISSMNEPYWKKRYNEARRVLSRS | 6210 nM and 6800 nM and 6940 nM and 6650 nM |  | 
mMepS-Q28A (enzyme, E. coli, UniProt P0AFV4 27-188, looked up, numbers count on: the mature protein; Site-directed mutant of mMepS; source: E. coli BL21 (DE3), purified (Ni-NTA, SEC)) MSANNTAKNMHPETRAVGSETSSLQASADEFENLVRNVDVKSRIMDQYADWKGVRYRLGGSTKKGIDCSGFVQRTFREQFGLELPRSTYEQQEMGKSVSRSNLRTGDLVLFRAGSTGRHVGIYIGNNQFVHASTSSGVIISSMNEPYWKKRYNEARRVLSRS | 1910 nM and 1770 nM and 1880 nM and 1850 nM |  | 
MSANNTAKNMHPETRAVGSETSSLQASQDEFENLVRNVD (domain or fragment, E. coli, UniProt P0AFV4 27-65, looked up, MepS, E. coli, mature residues 1-39, C1 replaced by Met; numbers count on: the mature protein; His-tag and TEV site; nothing is said for the ITC samples; source: E. coli BL21 (DE3), purified (Ni-NTA, SEC)) | 2650 nM and 2550 nM and 2840 nM |  | 
MSANNTAKNMHPETRAVGSETSSLQASQDEFENLVRNVD (domain or fragment, E. coli, UniProt P0AFV4 27-65, looked up, also: 15N-labelled, MepS, E. coli, N-terminal 39 residues of the mature protein, C1 replaced with Met. numbers count on: the mature protein; this is told for the NMR samples, not for ITC; source: E. coli BL21 (DE3), purified (Ni-NTA, SEC); not shown: His6 with TEV site, N-terminal, kept) |  | 2680 nM | 
MepS-N53 (residues 1-53) (domain or fragment, E. coli, UniProt P0AFV4 27-79, looked up, MepS, E. coli, mature residues 1-53, C1 replaced by Met; numbers count on: the mature protein; His-tag and TEV site; nothing is said for the ITC samples; source: E. coli BL21 (DE3), purified (Ni-NTA, SEC)) MSANNTAKNMHPETRAVGSETSSLQASQDEFENLVRNVDVKSRIMDQYADWKG | 1190 nM and 1560 nM and 1590 nM |  | 
MepS-N53 (residues 1-53) (domain or fragment, E. coli, UniProt P0AFV4 27-79, looked up, also: 15N-labelled, MepS, E. coli, N-terminal 53 residues of the mature protein, C1 replaced with Met. numbers count on: the mature protein; this is told for the NMR samples, not for ITC; source: E. coli BL21 (DE3), purified (Ni-NTA, SEC); not shown: His6 with TEV site, N-terminal, kept) MSANNTAKNMHPETRAVGSETSSLQASQDEFENLVRNVDVKSRIMDQYADWKG |  | 1450 nM | 
